The supplement of paper PMC12764529
± gives the half width of the 95% confidence interval.

Legend:
[1] = folding stability dG unfold (combined trypsin and chymotrypsin); higher = more stable
Summary of the method: (§1)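 Only designs with AlphaFold2 dimer inter-PAE above 15 were retained; each was a mini-protein under 80 residues with no cysteine, in a PA-tagged cDNA display construct. After digestion with trypsin and chymotrypsin and sequencing, K50 was inferred by Bayesian fitting of counts, and unfolding free energy was derived per protease or combined against a sequence-predicted unfolded-state K50 and a shared folded-state K50.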

[2] = folding stability dG unfold from trypsin proteolysis; higher = more stable
Summary of the method: as §1

[3] = folding stability dG unfold from chymotrypsin proteolysis; higher = more stable
Summary of the method: as §1

Row | Sequence | folding stability dG unfold [1] [kcal/mol] | folding stability dG unfold [2] [kcal/mol] | folding stability dG unfold [3] [kcal/mol]
1 | SAGGSAGGMTVTFTLPATAPENALENVTATVTYNGKTYLVKITATPVPDGPFVVVTAELVEYDPSAGGSAGG [r6_415_TrMRF] | 3.34 ± 0.17 | 3.02 ± 0.083 | 3.68 ± 0.14
2 | SAGDKIEIKFNIPMPEGPIRIMVWDNGKREEKDIPPGEEVTIKIDLPPGDDYRIAIYYPDGNMHEFPINSAG [r5_187_TrROS] | 2.47 ± 0.25 | 1.65 ± 0.17 | 3.31 ± 0.14
3 | SAGGSAGGSAGNLKVVDISIWRTDDMRYIMFKLEGDGLTIMIWVPPKEPGKIQIMIFPLDSAGGSAGGSAGG [r11_1046_TrROS] | 4.34 ± 0.16 | 3.49 ± 0.23 | 4.51 ± 0.1
4 | SAGGGNKVLLVVEAESPEVLEEKIREAEEAFGFTVTPLRREPLPDDRYRLVLEIDAPPEVVEFFKKESAGGS [r8_357_TrMRF] | 1.3 ± 0.045 | 1.15 ± 0.032 | 1.35 ± 0.092
5 | SKKPKIKIEIEIVEITEVKYDKKTNKITVKVKVKIKIEVEVNGKKKKIEIEIPKNMTLEEILKKLKELLKSA [r9_656_TrROS_Hall] | 2.28 ± 0.58 | 2.15 ± 0.44 | 1.99 ± 0.12
6 | SAGGSMSVEVEVLAKVKLPNGEEVTFPVRVTYNPETGEVTVEIDLPKEVFERLKELYPDGIIAPEPSAGGSA [r2_409_TrMRF] | 3.27 ± 0.048 | 2.79 ± 0.11 | 3.5 ± 0.078
7 | SAGGSMSIPLKTEEDVKKAVEYIKQKLLEEGAPEGLKIDKVEVTKLPDGTYKITITFPNKTFELVGSAGGSA [r2_120_JUSTAS] | 2.64 ± 0.079 | 2.56 ± 0.052 | 2.64 ± 0.047
8 | SAGGSAGGSAKIMIPVDTPEEVKDIAEEFASNGNKEVEPHEDGWVSIEFPNGVPIEIWLPKDSAGGSAGGSA [r18_126_TrROS] | 0.0345 ± 0.25 | -0.558 ± 0.28 | 0.488 ± 0.062
9 | SAGGSAGGSAGGGMTPVTTTTTVTVSPDATPVNFTTPDGTTVTVTPVPSSDTATVTTTVSSAGGSAGGSAGG [r7_796_JUSTAS] | 0.724 ± 0.06 | 1.24 ± 0.06 | 0.104 ± 0.03
10 | SAGGSAGGSAGSTVTLELEIDGVRITVKAELTPDGELRLTITEVEVLPPPPVVHPDDPEALKSAGGSAGGSA [r18_176_TrROS_Hall] | 1.33 ± 0.11 | 1.54 ± 0.049 | 1.1 ± 0.064
11 | SAGGSAGGSAGGSGPPSLPGVLVEIPEPLPGPEGTEFSDPKGYKYTYDPSNGKVLVERASAGGSAGGSAGGS [r4_78_JUSTAS] | -0.242 ± 0.19 | -0.753 ± 0.17 | -0.0458 ± 0.16
12 | SAGGSAGGSAGSEIAEAIKKALEEAGVKEVKIEKVGPEPNVFRITFENGETIEITLPEDLSAGGSAGGSAGG [r11_765_TrROS_Hall] | 2.21 ± 0.1 | 2.28 ± 0.15 | 2.19 ± 0.037
13 | SAGGSAGGSAGGGMPVEMKITLYDPDGTKIGEYTLKVKSEEELKKAVEEKGYNYEVDKESAGGSAGGSAGGS [r10_958_JUSTAS] | 0.29 ± 0.1 | 0.198 ± 0.067 | 0.17 ± 0.16
14 | KTVMIMFKNPEQILNQLREARDDGKTVSIMFPDEWINELKNLGFKIDKITDVQPMPGNDSYMVEIKIKPKDS [r1_173_TrROS] | 1.95 ± 0.2 | 1.29 ± 0.12 | 2.31 ± 0.12
15 | SAGGSAGGSAGDVEVRFEVKFTPDGTLIIKAEIRLPDIPDVTIRVEAVILPNGEILVKVSSAGGSAGGSAGG [r11_483_TrMRF] | 3.68 ± 0.16 | 3.68 ± 0.11 | 3.06 ± 0.15
16 | SAGGMLTLPATVEGDELTLTLPTGATKTVSPNTTVKLPDGTVVSLTPVSPSSVSATVTPLPADATRPSAGGS [r16_277_JUSTAS] | 1.21 ± 0.07 | 0.208 ± 0.029 | 1.601 ± 0.01
17 | SAGGMKIEVEVSDSDIESAAERIAKEVYEKIKAEGKNEDVEVTLTLPNGTRYRIVVDGKGNVKEIIESSAGG [r13_965_JUSTAS] | 3.74 ± 0.25 | 3.07 ± 0.17 | 3.79 ± 0.16
18 | SAGGSELENMSLEELLARAEELARELAEETGRTVTVTVEVRVRLPDGSTRTFRFTVTLTVLREEDLSAGGSA [r2_157_TrROS_Hall] | 4.519 ± 0.041 | 3.93 ± 0.12 | 4.739 ± 0.04
19 | SAGGSPIISTEKSSSGVTTITFPDGTVVTEVTTPLPDGTVLTTTTVTPPNAPVSTTTTTDPVPPGLPSAGGS [r16_211_JUSTAS] | 0.767 ± 0.062 | 0.775 ± 0.062 | 0.702 ± 0.027
20 | SAGGDKKKVKIHIFPPPGMPMDNFANYIQDQLGWDRNNIKVEPMDSPQEAERRAEKNGKPEIVIFFRSAGGS [r8_245_TrROS] | 0.456 ± 0.32 | -0.216 ± 0.31 | 1.02 ± 0.54
21 | SAGGSAGGMLLVRIKVRRPDGSEETIVLEFESEEELKAAIEELLPPGWEVVEIELVPLGEELPESAGGSAGG [r6_872_TrROS_Hall] | 4.49 ± 0.11 | 4.55 ± 0.17 | 4.402 ± 0.042

Row | Sequence | folding stability dG unfold [1] [kcal/mol] | folding stability dG unfold [2] [kcal/mol] | folding stability dG unfold [3] [kcal/mol]
22 | SAGGSAMTVTKVGSETKTDPAKGIVTTTEITKLPTGGLTKTVTTTTIEGGKVKSSTTTTTAIPVGTSAGGSA [r15_283_JUSTAS] | 0.104 ± 0.085 | -0.156 ± 0.061 | 0.266 ± 0.065
23 | SAGGSGMTVEVSVDPSTGTIRIKIKYGDKEYEVTAPVTRLPDGTYAVELKISAPNGPLLETKEITLPLSAGG [r13_59_JUSTAS] | 2.06 ± 0.087 | 2.46 ± 0.086 | 1.76 ± 0.024
24 | SAGGSQRFRITELVVPEDDGNLFIRVRGPNGKSMFMPASDIEKARKNGKEIEFPFPNGQPFEVEIISAGGSA [r2_301_TrROS] | -0.411 ± 0.33 | -0.34 ± 0.44 | -0.461 ± 0.66
25 | SAGGKIKIVLSAEELEKKFGKSIEELAAELAKKLFPNKKVKVKKVKIEKDENGKEKLYVEVEIEPEKPSAGG [r13_723_TrROS_Hall] | 3.11 ± 0.17 | 2.91 ± 0.15 | 3.2 ± 0.073
26 | SAGGSAGGSKKVKVTIEYDKETGVVKVTVEDPETGEKYTVTAKFEFDKNGKLVKVEVVSIEKESAGGSAGGS [r12_791_TrROS_Hall] | 3.67 ± 0.11 | 2.71 ± 0.14 | 3.94 ± 0.11
27 | SPDIEIEPMPNGSYMIEVPVPPDAESIEVPFPGNGRPVTIHRDPDKIHIFFNNPEQIEEIAEAIADGKPISA [r9_515_TrROS] | 0.15 ± 0.15 | 0.0692 ± 0.047 | 0.2 ± 0.21
28 | SAGGTITIELDGVTIEVRVEEKDGTLTLTAKVYNKDTGEVFEIEITITRKEDGSVTITIKITKIEPLPSAGG [r13_1004_TrROS_Hall] | 3.87 ± 0.53 | 2.44 ± 0.16 | 3.96 ± 0.28
29 | SAGGSAGGSAGMELKIKVTLTPPGAPVPLTLELEVESEEEARERLEKEYPDREIELEVLESAGGSAGGSAGG [r17_428_JUSTAS] | 0.143 ± 0.093 | -0.534 ± 0.072 | 0.354 ± 0.088
30 | SAGGSAGGMRLEIVVEMSEEEARELAEALRRELEERGYRVRVEVRRLPDGRLVVRVEIEPAPEPSAGGSAGG [r6_597_TrROS_Hall] | 4.63 ± 0.17 | 4.47 ± 0.19 | 4.49 ± 0.093
31 | SAGMAEEAREAARLFASELAPRFGVEAEIPEVRVEFDPETGEVHVHLEVLFRLPEPRTVRRDFVLVLPLSAG [r5_381_TrMRF] | 1.67 ± 0.1 | 1.3 ± 0.086 | 1.92 ± 0.13
32 | SAGMKVILIIAPEEKIEEIFEEIKKIAEEHGLDLKLDKIEPLPEKGYLVIVTVKNPESDETTVILVLVPSAG [r5_41_TrMRF] | 3.55 ± 0.12 | 2.96 ± 0.096 | 3.75 ± 0.077
33 | SAGGMMKLNPKTLETKTTTVPLPDGSTVTLTTKLVELKFPNGEVELVTLTVETFPSEPTLTVLEEKPLSAGG [r19_158_JUSTAS] | 0.341 ± 0.11 | -0.0226 ± 0.083 | 0.45 ± 0.1
34 | SAGGSMPKGQEVKIEIEHRRHNGRRYWRVSVEVPNGKDIEIPFDDPEEMPPEMKKQIENLAKEIVKSAGGSA [r2_17_TrROS] | 0.874 ± 0.26 | 0.146 ± 0.11 | 1.11 ± 0.25
35 | SAGGMVKLTVYETPDSYTVTIDLGDKPYTIPVPPGLSPEEAAARAVEELQKAFPDEEVVVESVEYVARSAGG [r13_884_JUSTAS] | 1.19 ± 0.068 | 1.1 ± 0.079 | 1.24 ± 0.086
36 | SAGGSAGGSAGMRKVVTGKEAVVKLTGIPPEVLEAMSEEELRALVAPLVEAGKVDEIELKSAGGSAGGSAGG [r11_80_JUSTAS] | 0.601 ± 0.13 | -0.0624 ± 0.17 | 0.898 ± 0.052
37 | SAGGMEPIEIPAKVKITHNGKEQEYPLENVTIWPMPDGMYMIYNPDKGEMFFINPKNGRLMRIEIDDSAGGS [r16_721_TrROS] | 1.99 ± 0.19 | 0.94 ± 0.092 | 2.5 ± 0.15
38 | SAGGSAGGPYYIMVDIEMYNPQDGKERNFTLMIPVPPGDLPKIKEELLSAGFPIKIKNISIMPPSAGGSAGG [r6_151_TrROS] | 2.74 ± 0.18 | 2.62 ± 0.14 | 2.88 ± 0.062
39 | SMVQGTVLPPNGQRLTFEFDPAGTAQERAEQVRALLEALLPPDLKIEVERVEPDRPISADEPGTVLARADSA [r9_178_TrMRF] | -0.248 ± 0.28 | -0.914 ± 0.56 | 0.0574 ± 0.19
40 | SAFNIEIEEVDPNEIYIKIDATPEQLEEIAEDIMKNFPGYKVKWEWDDEQGKIWFRIRPVPPPPPEDQNSAG [r14_600_TrROS] | 1.96 ± 0.29 | 1.14 ± 0.1 | 1.97 ± 0.13
41 | SAGGSIEEAKKAAEKLAKEIAEKKGWTVKSVEVEKLPDGTVRATITIKYPDGSEETIEVTIPPNTPLSAGGS [r8_175_JUSTAS] | 1.91 ± 0.14 | 2.63 ± 0.11 | 0.954 ± 0.039
42 | SYLPESVPYDLVELTVVAKGKSPEYLEKKIKEAFKDVKIEPFYDPEKKLVTFKIVFPNKETAEKFKELVSSA [r9_764_TrMRF] | 2.16 ± 0.07 | 1.93 ± 0.054 | 2.28 ± 0.041
